According to the DeepSol protein solubility set:

Assay: soluble on expression in E. coli; label from the status in PepcDB or PDB records

Sequence	soluble on expression in E. coli
SKKFSWNTSFNFTRNVNKVEKLENPYVYGSRDMVRNEEGYALYSFWMYNQLYVDKQTGQAVFEDVNGDGQITVADRKIMGNANPKFFGGLTNTFKYAGFDLNVFFVYQYGNKVVSFDRILNEGGGTKDNNRGIFEYNMNRWQKPGDDTDVPRVTSVGNNYGIEQNSRFLEDGSFIRLKTLTLGYTVPVDFTKKYSVQSVRFFVTGTNLLLFTKYKGPDPEAVHTSEQNARGIDVGTPPQPVSVQGGLTITL	not soluble
WLSRSERYIPMMREVLRKEGLPEDLVYLAMIESGFTPHAVSVASAVGPWQFISGTGKRYDLRIDQWIDERRDPLKSTVAAAMYLKELYSLFNQDWYLAAAGYNAGENKILRAIDKYNTRDFWEISKGSYLKRETKDYVPKLLAAAIIAKEPARYGFADVAYLPPIEFD	not soluble
MKPRNINNSLPLQPLVPDQENKNKKNEEKSVNPVKITMGSGLNYIEQESLGGKYLTHDLSIKIADISEEIIQQAILSAMSIYKFSITDDLMSMAVNELIKLTKIENNVDLNKFTTICTDVLSPRVTRHNKEKNKRHSTLLKNPLFNFH	not soluble
MMSIAQVRSAGSAGNFYTDKDNYYVLGSMGERWAGRGAEQLGLQGSVDKDVFTRLLEGRLPDGADLSRMQDGSNRHRPGYDLTFSAPKSVSMMAMLGGDKRLIDAHNQAVDFAVRQVEALASTRVMTDGQSETVLTGNLVMALFNHDTSRDQEPQLHTHAVVANVTQHNGEWKTLSSDKVGKTGFIENVYANQIAFGRLYREKLKEQVEALGYETEVVGKHGMWEMPGVPVEAFSGRSQTIREAVGEDASLKSRDVAALDTRKSKQHVDPEIKMAEWMQTLKETGFDIRAYRDAADQRADS	soluble
MARVYVSTVVNARNDRVWARVRDFNGLPNWHPAIAESRIEGGEPSDKIGCVRDFRLRNGDRIREKLLGLSDYDMFCTYSILESPMGVENYVATLRLTPVTDGDQTFMEWTAEFDCAPERETELVNNIGGGVFQGGFDALKRVFGGLEHHHHHH	soluble
MAHHHHHHMLVSERAQPVRLFNCLLLRAHKDDESDGAACALHKNAASTSPTTDPIAAATAVGATRLYFTEGGPSSSLTALQRYLKVEEAHTTCPLLRVLQLAPQAPTGNMQPLVYVELDTPNAVSLSDDAQGRREAVLTTCSGVCTQETMPSRWYHAPVKATLCVFQEFMRAPTTSAASEPAFWAFLESVVRYHARDFYCGAVQVELQCVFVPTFEEKQNTAYSVDVFGDYVNEKEGQAQQSSPAAGKGRTAMKICVKSTEAFEHVMAYLKTQCPLLEADFRSSHLVVYAKWSSQLSAVRDSSHSQPPAADATGAVEQAACFVWLQDDAGGGGRDGVYADAALEALLDELTLAAASISTPSRAAAVLQEEGVSSFFEACCLTHTLKRVIRKHFQAVVLRQRPLFHWVISLPPYARLSRSTTSAAVTAMRFRDNAAVSRAVWGATQMLVHWQQLSNSAHALANEALKQSFGRGSGPSRQIVSAPARVPRQRRAIQQSALYGDTFSGGSALDRQRGKVNVPHLYGADEGHDASISLSSAQRGSVMAASGLFHNLRSIKEDSFNNTSVLDAEDVFGSNPKLTTRVVKRLAQSRTSVHTAQ	not soluble
MGSDKIHHHHHHMRVRSVTEEDYLKIIQELVLYQDYAQLSDIAKSLQVKRQSARDEINHLIDLGMVKKIDRGKYVLTDQGDIEANIFLRKHRTAEVLLSQCVGIEWDAVDREAMGIEHGMTEEIIHRVIERFNAKRCPHGNPIPSPEGYVEKIDDVRITDLNETGDVIISRIIYETDEILNYLYANQILPGAKVKIIRTGFPLQIEKDGRLLSLDPSIAKAIRVSSIK	not soluble
MFSSSALSYINGFCFSTAGYSPEFCHAVRFVLIEEGALNQDGTPKPNLGYVNDPKDKGGETKGGISKRAFPNIDIAALTLDGIVALYHRYFWKPAYCQDWPASVALYTFDAAVQHGVTNALLMLQEIAGTKADGKVGPATRNAVNSADKEYLCARYGLRRARFYARIIKKDTSQTRFIEGWHNRLVNLTNAAWELQ	soluble
MGSDKIHHHHHHMFERSDETLIAQALKGKKSAWLTLVKRYEKNLYNYALRMVNNPADAMDLMQDIFIALFRNLSKFRGECPFKNWLFKIAHYRCLEYYRRKRPMQSLDDVPEQEDEESVCLEKNLQIQQQSSALLEAMQHLPVKQKLVVELKFFQQCTFEDISQQLGISTNTAKSQLYSALDKLKLHLVDDQIIKVGVEYV	not soluble
MAHHHHHHMSWQGPRVLVVGENQWEREAVSRALLNLAVRHGSPYGICYVDLDVAMPMVGCPGTVSAAFVEEPVTAPEDFGVMMPLTFFHGTASVTSATRKRYLDLCVCAAQAATSLGFANSKFEAGGFLIHSLSPSTEIQHDVLSDVLSIFAVTHVVVTGADRELEKFLYNAVLGRTVHFVRLPKLAGVQSPSSAGAEQRRRAQLERYFFGTPRTPLVPVRGVARMSELVLLHAETFEPLSWREVPDLGLAAVVWADTAASAAEANVAGFVALLEVGKQFVSFLAPSGGELPKPFLVVSPSLHLPRELVMPLPVT	not soluble
MKNLPISIGRIVMQGGHVNFQDQFIQPNYRAYLTDLAGRIGPLNPRKTGEVDIRGAVDKTAPLKISGSVDAFGRELNLDITASAKGIDMPTFSPYSGKYIGYAIEKGKLSVDVHYHVEHGELTAENSIFLDQLTFGEKIESPDAVSIPVNLALALLEHHHHHH	not soluble
EDAALREEAKGLFEVIPMQAPQLADNNTVTRDKIDLGAMLFFDPRMSKSGVFSCQSCHNVGLGGVDGLETSIGHGWQKGPRNAPTALNAVFNVAQFWDGRAPDLAAQAKGPVQAGVEMNNTPENLVATVQSMPGYVEAFAKAFPGQKDPISFDNFALAVEAFEATLITPNSKFDQWLMGADGAMSADEKAGLKLFIDTGCAACHNGINIGGNGYYPFGVVEKPGAEVLPAGDKGRFAVTATADDEYVFRAGPLRNIALTAPYFHSGKVWDLREAVSVMANSQLGATLDDTQVDQITAFLGTLTGEQPEVVHPILPVRSAQTPRPEHMN	soluble
MGSDKIHHHHHHVSVPTQHHLSAERLDQSAQFARITSTVEAPVLSLWLPDPQQAVPSACGRAVAGHDGPSEGAGGQRQGGESGQLCRAHLRLQPGPVLAGEAEAPPTRPQFLLVVATHLQRSFTREVKLHGRCPRRVRRPFHLITQIDNQVRGCRPDLTQHRREREGVPVHVADDCHSHPSSLAQTGAAPPANMRPMSILPDWRIRELAQAGMIEPFEDRLIRTAENGHVISYGLSSFGYDLRCADEWKVFTNVHGALVDPKNFDERSFVDLQANAIIIPPNSFVLARSLEYLRIPENVMVVALGKSTYARCGIVANVTPLEPGWEGHVTLEFSNTTPLPAKMYAFEGCVQLLFFEGERPAVTYRDRGGKYQKQRGVTLPRL	not soluble
MGSDKIHHHHHHMAYPNGKLSEEKVFKDPVHRYVHVRDKLIWDLIGTREFQRLRRIKQLGTTYLTFHGAEHSRFNHSLGVYEIVRRMVDDVFKGRPEWDDSERELCLAAALLHDLGHGPFSHSFEKVFHLDHEDFTRGIILGDTEVNQVLRKVSPGFPQDVAEVIAKTYKNKQVVSLISSQIDADRMDYLQRDAYYTGVSYGHFDMERILRVMRPREDQIVIKESGMHAVEDYIMSRYQMYWQVYFHPVTRSAEVILTKILHRAKQLHDEGYVFTHAPVHFYSIFEGKLTLEDYVKLDESIILYYFQAWEDEEDAILSDLCRRFINRQLFQYVEFNPNEEMSAYFELTSLFKEAGIDPSYYLVVDSSSDLPYDFYRPGEEEERLPIHLLTQNGQIKELSRQSAIVESISGKRRTDHKLYYPKDLICDGTKHPEAKMKIRQLLGLT	not soluble
MTQMNFTDRATRVAIIANGKYQSKRVASKLFAAFKHDPDFYLSKKDPDIVISIGGDGMLLSAFHMYEKQLDKVRFVGVHTGHLGFYTDYRDFEVDTLINNLKNDKGEQISYPILKVTITLEDGRVIRARALNESTIKRIEKTMVADVVINQVVFERFRGDGILVSTPTGSTAYNKSLGGAVLHPTIEALQLTEISSLNNRVYRTLGSSVIIPKKDAIEIVPKRVGVYTISIDNKTVHYKNVTKIEYSIDEKSINFVSTPSHTSFWERVNDAFIGEPEHLEHHHHHH	not soluble
LHPEPQSQHELGNVFLKFKDKFCVYEEYCSNHEKALRLLVELNKIPTVRAFLLSCMLLGGRKTTDIPLEGYLLSPIQRICKYPLLLKELAKRTPGKHPDHPAVQSALQAMKTVCSNINETKRQMEKLEALEQLQSHIEGWEGSNLTDICTQLLLQGTLLKISAGNIQERAFFLFDNLLVYCKRKSRVTGSKKSTKRTKSINGSLYIFRGRINTEVMEVENVEDGTADYHSNGYTVTNGWKIHNTAKNKWFVCMAKTAEEKQKWLDAIIREREQRESLKLGMERDAYVMIAEKGEKLYHMMMNKKVNLIKDRRRKLSTVPKCFLGNEFVAWLLEIGEISKTEEGVNLGQALLENGIIHHVSDKHQFKNEQVMYRFRYDDGTYKARSELEDIMSKGVRLYCRLHSLYTPVIKDRDYHLKTYKSVLPGSKLVDWLLAQGDCQTREEAVALGVGLCNNGFMHHVLEKSEFRDESQYFRFHADEEMEGTSSKNKQLRNDFKLVENILAKRLLILPQEEDYGFDIEEKNKAVVVKSVQRGSLAEVAGLQVGRKIYSINEDLVFLRPFSEVESILNQSFCSRRPLRLLVATKAKEIIKIPDQPDTLCFQIRGAAPPYVYAVGRGSEAMAAGLCAGQCILKVNGSNVMNDGAPEVLEHFQAFRSRREEALGLYQWIYHTHEDAQEARASQEASTEDPSGEQAQEEDQADSAFPLLSLGPRLSLCEDSPMVTLTVDNVHLEHGVVYEYVSTAGVRCHVLEKIVEPRGCFGLTAKILEAFAANDSVFVENCRRLMALSSAIVTMPHFEFRNICDTKLESIGQRIACYQEFAAQLKSRVSPPFKQAPLEPHPLCGLDFCPTNCHINLMEVSYPKTTPSVGRSFSIRFGRKPSLIGLDPEQGHLNPMSYTQHCITTMAAPSWKCLPAAEGDPQGQGLHDGSFGPASGTLGQEDRGLSFLLKQEDREIQDAYLQLFTKLDVALKEMKQYVTQINRLLSTITEPTSGGSCDTSLAEEASSLPLVSEESEMDRSDHGGIKKVCFKVAEEDQEDSGHDTMSYRDSYSECNSNRDSVLSYTSVRSNSSYLGSDEMGSGDELPCDMRIPSDKQDKLHGCLEHLFNQVDSINALLKGPVMSRAFEETKHFPMNHSLQAIHPFTHSATHAPINPSVHPPLHPTTHLPSIHPPTHPPTHPSIYPPTHPSIHLLVCPSIHPSLLPSVCPLFHPSTHSFIIYLSIHASVHPVNNFPEPACARPCTGHWRP	soluble
MSLTRIKLIATDVDGTFLNQQRTYNHNRFAAQLNRLSSASIRFVVASGNHLGHLKDVFAPTPQVQTFVAENGGLIVDHNRTLAEAQLPLPVVREVVQAILADQTLRPQLLRLSGAHGTYLNRQDRSLDEASQDYFFNNLVRVDDLTQVNDTIYKINGEWPNDSIQTIAAKLNAHFPGLINATASGFGSIDIVAPHMNKAVGLTQLAATWHITPAEIAAFGDNDNDREMLAHVGLGVAMRNGTDSVKEVADLITPHDNNHEGVLDVIDTILADEGHHHHHH	soluble
MGSDKIHHHHHHMVEIKKICCIGAGYVGGPTCSVIAHMCPEIRVTVVDVNEARINAWNSPTLPIYEPGLKEVVESCRGKNLFFSTNIDDAIREADLVFISVNTPTKTYGMGKGRAADLKYIEACARRIVQNSNGYKIVTEKSTVPVRAAESIRRIFDANTKPNLNLQVLSNPEFLAEGTAIKDLKNPDRVLIGGDETPEGQKAVRALCAVYEHWVPKEKILTTNTWSSELSKLAANAFLAQRISSINSISALCEATGADVEEVATAIGMDQRIGNKFLKASVGFGGSCFQKDVLNLVYLCEALNLPEVARYWQQVIDMNDYQRRRFASRIIDSLFNTVTDKKIAILGFAFKKDTGDTRESSSIYISKYLMDEGAHLHIYDPKVPREQIVVDLSHPGVSADDQVSRLVTISKDPYEACDGAHALVICTEWDMFKELDYERIHKKMLKPAFIFDGRRVLDGLHSELQTIGFQIETIGKKVSSKRIPYTPGEIPKFSLQDPPNKKPKV	not soluble
